Assay results: the DeepSol protein solubility set

Assay: soluble on expression in E. coli; label from the status in PepcDB or PDB records

| Sequence | soluble on expression in E. coli |
| --- | --- |
| MERLDFSSIIRKDREEHKSKKFEGTFLEYLEIVKENPEITMLAHQRMYKLITEPGVTVIRTEENPRLRRIYGNDIIKKYKFFEDEFFGIDKTIMKIVRYFHSAAMAGEEARQVLYLVGPVGAGKSSLMEALKRALEMSPPIYALKGCPMREEPLHLVPKHLRKEFEEILNVRIEGDLCPICRYRLKNEYNGEYERFPVETVDFSIRSRKGIGVVPPVDPNNQDTSVLIGSVDISKIDLYPEDDPRVLSLNGAFNVGNRGIVEFIEVFKNETEYLHTMITATQEKSIPSPGKGSMIYFDGIILAHSNEAEWNKFKSDHTNEAILDRIVKIEVPYCLELNEEIKIYEKILRKSKFDAHIAPHTIEIAAMFAILTRLAPSNKVDPMTKLKIYNGEEIIEKGMTKKVDIFELKEEAPREGMTGISTRFIMKVLDTTLSESEHNCINPISVMETLVKSIKELSISEEERERYLRFVQDSIRKEYNKILEREITKAFIHGYKEQAESLFNNYLDHAEAFVNKSKIKDRNTGEELEPDEKFLRSIEEQIGITDTAAKGFRADVTAYMFYVLRNGGKLDYTSYEPLKEAIEKKLTSSVRELSRVITQAKVRDKEQSEKYDTMVQEMKNNGYCDHCCNVILKYAANNLWKD | soluble |
| MVSIIIPIYNVQDYINDCLYSVYTQTYSEIEVILVNDCTPDNSMLIAHSNIEKLKKRFNVKIIDHKSNKGLSAARNSGVKEATGEWVYFLDSDDEITPDCIECFVRLAERYLSVDFIVGGIRVIGRNISYRLTTSEYVIGNDNILKCYISGMWYEMAWNKLIRKEYFVSNNLWFKEGLLHEDQLFSYQLATTALTMATVNKPTYIYKMRMSGAITSSNGRKNFDSFICILEYMVYSVMQKYSTSSVTLEYAQIIRFSYSILLSLYGKHNLTEMEVVNYELKVDRICRIVTFYKCKLPVPIQIKLTIIKLPQTMRKVLLKWHNKKIQKKLEHHHHHH | soluble |
| NENNTVVAETKTSTASETSEPKQVISSKQQLASLYLQAKQSLFKQRALSATMYGLSQKDIGQVISSDMEFYSPENEKQLRAELLSISNTIAGIKLDDADITTKNNQQVMAGLTRYFAGEPNFNIGYIDTWMGLSPFIVNQINGPLIDIPRVMQNDQPITTEKEALDYIVRLGQFDKLAATIIEKQTADAAQNWLPSKVTLQGAIKYLKGFTSGSAEQHPFVNVFREKIEKVDSLTTEQKQSLITQVIAKVSQVVYPAYQSVEKASEQLLSEARSESGIWAQPKGSVYYQDAIKQLGDSELSPTQIHQIGLDEVARISGVMNEILLAQGYTKGTVGERMVALNEEPRFLYEDSIAGREELLSDINGYITEVTAKMAPVFRTTPSYQVEVKSFPVEVQDGAPGGQYTSPAVDGSKPGIYWINLRDMKANPKFGLKTLTYHEANPGHHWQIALNLDQAELPFLRRIAPYNAYTEGWALYSEQVAYELGMYENDPFGDLGRLQAELFRAVRLVVDTGLHDKRWTREQAISYMSEQTGTAESDVVAEIERYMAWPGQALGYKLGMLKILSLREQAKARLGDKFDLAEFHDVVLLNGAVPMAVLSRNVNHWLDNK | soluble |
| MSHHNPLVSVVIPSKNRPDLVIATLVSVIDQTYDNIEIIVVDDGSDMPLAPLLKDRFSDRVLCLRNDQSLGGAVARNRGAQSAHGDYITFLDDDDLWLPKKLEMQVDAFSKHGVDIGVVYCGFDFLCKEEIVPRQNKFHNDYDLSIAVLSGCPFGSPTPLIRKHYFDMVGGFDRELPSCQDWDLWIRLSKVCGFYPVKESLALYRVHGDQISTNLRKKIDGRKMVLAKHYDEIKNYPRVLSAHYSRIGSLCVLADEHVEARDFFSKALASNMFDGGSFVHLVLQFLCRPLEKWLIERFSVNTIDGIKVIHLEHHHHHH | not soluble |
| MQDRCPHQDHRSIPTIMPDLEPDTVSALEAPEFAPAQFVRWFREVAPYVHAFRGKTFVVAFGGELVQAGALNVLVQDLSLLSALGIHLVLVHGSRPQVNEQLRLKGYTQQFGRGLAPTDPAALECAKEAAGEIRLDIEAAFSQGLPNTPMSHSHIRVLSGNFVTARPTGVVDGIDYKHTGQVRKIDVDALKFAIEQGSVVLLSPLGFSPTGDAFNLAMEDLATSVAVALRAEKLIFLSGEPGVLDGNGAVDTELARVDADALLARGELDEDTTYFLQHASLAVKRGVARAHLVPYALDGSVLLEIFTHDGVGTMVVEDTLDDLRAATLDDVGAILSLIEPLETDGTLVPRPRSAIERDVERFTVLEHDGVIYGCAALYPFPEDQMAEMACLIVHPEWQGSGEGEILLRHMESRARASGARRLFVLTTRTSHWFMKRGFVRGGVADLPRDKQNNYNRSRNSLVFIKKL | not soluble |
| MTDSDGKIVWETGYQVWGNTIQEKDHGGVEQNLRYQGQYLDRETGLHYNLHRYYDPDVGRFMVTDPIGLRGGLNLYSYAPNPLKYADPLGLTPCAVSNQKANRLLDSSETKVTVRSRSDAEQLFMDRYLGHNYKNMTGESGPSTKNLMEYLTENKTKAGSYHWDDIKDPSVTKPSYRVSGHGPGNPDGDLPHLQVHQHGGSVRHIFFPWETLEHHHHHH | not soluble |
| MGSDKIHHHHHHMPQITIIVPVYNAERTLERCVRSIQAQTVVNWELLLIDDGSEDYSSKLCDEYAIQDSRIRVFHQVNGGASSARNVGLEYTKGEWVVFCDSDDWVDSNWLELFKNQIDNGTELIVQGFIPHGNLWQSRTGINFHGNVKTGILKLQEENILGFMCTKMYKREIIEQCGLRFDTELVLREDELFMLQYAEYISTIQCMEEGAYHYDMPDFSTKYGNIDLFNMFLKIYVVLKRIFSGEDNLLLQNYENDLTQSLFHSFVMRHDDRCKKLENYRKEVGKRVLGVKSLSQFSKYILAYVPSFQVAYLLLEAKAKIVKSMQ | not soluble |
| MSYYHHHHHHLESTSLYKKAGLNNFNLHTPTRILFGKGAIAGLREQIPHDARVLITYGGGSVKKTGVLDQVLDALKGMDVLEFGGIEPNPAYETLMNAVKLVREQKVTFLLAVGGGSVLDGTKFIAAAANYPENIDPWHILQTGGKEIKSAIPMGCVLTLPATGSESNAGAVISRKTTGDKQAFHSAHVQPVFAVLDPVYTYTLPPRQVANGVVDAFVHTVEQYVTKPVDAKIHDRFAEGILLTLIEDGPKALKEPENYDVRANVMWAATQALNGLIGAGVPQDWATHMLGHELTAMHGLDHAQTLAIVLPALWNEKRDTKRAKLLQYAERVWNITEGSDDERIDAAIAATRNFFEQLGVPTHLSDYGLDGSSIPALLKKLEEHGMTQLGENHDITLDVSRRIYEAAR | soluble |
| MVSATYSVVYETGKKLNSGFDNWGWDSKMSFKDNSLVLTADPDEYGAISLKNLNSNYYGKGGCIYLQVKTETEGLVKVQGVRGYDETEAFNVGSFRSSSDFTEYKFEVDDEYQFDRIIVQDGPASNIPIYMRYIIYSTGSCDDHILEHHHHHH | soluble |
| MAQEEEDVRDYNLTEEQKAIKAKYPPVNRKYEYLDHTADVQLHAWGDTLEEAFEQCAMAMFGYMTDTGTVEPLQTVEVETQGDDLQSLLFHFLDEWLYKFSADEFFIPRVGRRIFIVQAPSGNRSQSNNIFSNAGL | soluble |
| MVVNTHRVPSVDVLLDVITERIGLINGAKKLYTTSGTLVKDINKIKDGQNYVASSSHFTPAAYGGQHQPIQKEVKLKKKKKKRSQTVQPRKTEHIELGDEISIPLNEPVVLEKKKKKKKKLVQKNLDLHGSIETLAETAEIELPSEIEDSEEEDEHEHRRSATPDHHRPATKHSVAPSRASSRRGSRRDEEKREEEDEERKKKDEKKRKSVSSSRRKSQAQHHGQPNWGDLSSFTKNIESLLKN | not soluble |
| MGSDKIHHHHHHMTTNEIEIRLMQDVDAAGVVELYKTVYGNEYPVKTVYDPAAVIEQQNNGEMYRIIARSGDKVVGQTALYRSTSPNPELYEEGQGIVLPLYRNQGILEQCLAYGHKVAYPQLNIKQEWGEAVCNHTFTQKAGARLGAFETGIELDLMPASSYVKEQSSQGRVAALVMFLIFQAAPPQLLYLPETYADSLHYLYSAYDFKHEFVSSKSLLPEQATRGQVEIYADAAVARFTLLETGKDLEDYLLEQEKLAQAQGCSVFQAYLKLANPAVGHAVNILREHQYFLGGILPRWFATDGLLMQKLLHEPNLEGINLYSERSHKILNMIIDDRNTVIK | not soluble |
| MGSDKIHHHHHHMVEKLASSEVANRLNEWYDTIKQQDVERASKLRNEVQEAINQMEEDQNVLQYFNLIDSRFRQVIEEFDKSKTILKSIKNQTERSETDQLLRYYYFFFNGLYEFYKRNYIQAIHYYRQAENFLISIPDEIEHAEFHIQLANAYYGIEQNFFSLSHAKKALNIYLNHENYVNRLITTQLTIAANELDLKQYGSAETLYKKAIKTASEHNHAFMEVLGYFNLGICYELQDKLEFARDCFEAALDISYPQENKRDSYLRIKYMLARTLFKMELVDEAMDWFEDAQTLVDATNEETYQAKLKIIYSIYKTYDETSIDNGLEVLREKKLWHDVSDLTTNAARHFKKKEMFKLATKYFSEALLAKEKIPMLHKEVESE | not soluble |
| MGHHHHHHHHHHSSGHIEGRHMKLEFMNLLSENKKENYYYCGENKVALVTGAGRGIGREIAKMLAKSVSHVICISRTQKSCDSVVDEIKSFGYESSGYAGDVSKKEEISEVINKILTEHKNVDILVNNAGITRDNLFLRMKNDEWEDVLRTNLNSLFYITQPISKRMINNRYGRIINISSIVGLTGNVGQANYSSSKAGVIGFTKSLAKELASRNITVNAIAPGFISSDMTDKISEQIKKNIISNIPAGRMGTPEEVANLACFLSSDKSGYINGRVFVIDGGLSP | soluble |
| AIAEHKEVVLLLLLFLKSGQGEPLDDYVNTQGPSLFSVTKKQLGAGSREECAAKCEEDKEFTCRAFQYHSKEQQCVIMAENRKSSIIIRMRDAVLFEK | soluble |
| MSLVDHVHFERELTLLKSDVSKMLFLVSESLNDAIESLETMNETLARKVLESDDMIDELNREIEEKAYQIIARYNPILKQLRYIITILKFSNDLERIGDLSCNIAEKCLFLSEEKIKFEMLKELKDMFGSTLKVVQDAFKAFVEEDVDLAFRLWKFDDVIDEMEKKIRRIVVERIREGNISAELALVYILIARDLERVGDHANNLCEEVIYIETGKNMKEFLRGVESGSEGADSEGGSHHHHHH | soluble |
| MYKILRTEKSWIEGSAVEQVKKLASLKGVENVIGYPDLHPGKTPIGISIITKDVIYPHLIGNDIGCSISLFETSELKRKFKVEKVMKTLQNSDLKNEIKKDFNLGTIGGGNHFAEFTLVDKILDESETTNFDKNKVYLLVHSGSRGLGEEILRKYIDYYSCQNGLAVNSEGFNNYISDYKKAVVFAKENRQLIAKNLCQLLNLKAFDLKIEAIHNGLELREDYIIHRKGAATALNKYVVIAGSRGDYSYIVKPINSSLETGFSIAHGAGRKWKRSGCKEKLQGKFSKKAIRNRSFSYNLICSNTNLVYEEAPEAYKNIDRVIDDLLSFNLIKVVARLKPLITYKDLEHHHHHH | not soluble |
| GPGSMSMNVYKRQEKLRLYRALLKGANRFPLRSRREIVTEEVRGAFRHPLNDSLTTKEVDYKLLLGWERAAAIQTYAENMYWFHSRDEVSREMMHHSLERDRQRIREMERCNAVGNAEIKTPEVTEFKSSMYHVHPDYHGKIGQMPLTHSRDIWRARGQYGSDVGGPRQKFYVRRFKALFPQGW | not soluble |
| MAHHHHHHMEKDGYTKLSEEEEQQLDNCRACMALTAVFMEEVMKPTEKLQHQLHQQQQQEGSAPRTPKNSDAVRSGERQRLVTNVHDAIDKLCDRVKERNNQVDASYDKGKEERDEKSESTEGGPIWYVSVNTAACEVALEEVSEALAREAFAQLLPERVAGTRGGGPSAVCEQENLCTARLSQHVKSEEEKAKAELEKEMRRQRELSRKNPKETLALQRAVAVGVGIMVIALWLRGRQSAKPEGDVKKD | not soluble |
| MTYCLAIKVDQGLVFASDSRTHAGVDYASVYSKMYRFDLHSDRLMIVLAAGNLATTQAVINLIRRDLENPGALYNLNTVAYLYDAASYIGETSVRVQEQHASAMQRCGISGEASFILGGQIQGQPPEIYLIYPQGNYITVSPDNPYLQIGETKYGKPILDRMIAPATTLEDAARCALVSIDSTMRSNISVGPPVEVAIYRRNSFVVGHYLHLDYSSPLYALIQKQWAEGIRNAFTLLPRFEWEDGGSIGSEQSQLEHHHHHH | not soluble |
